# Measured values as given in patent US20100291638.
# Experiments:
# Details in all cases: dNTP incorporation; background <500
# [1] = tested on: T1, DNA polymerase clone 1773 (uncultured hot spring virus (Great Boiling Spring))
# T1 sequence: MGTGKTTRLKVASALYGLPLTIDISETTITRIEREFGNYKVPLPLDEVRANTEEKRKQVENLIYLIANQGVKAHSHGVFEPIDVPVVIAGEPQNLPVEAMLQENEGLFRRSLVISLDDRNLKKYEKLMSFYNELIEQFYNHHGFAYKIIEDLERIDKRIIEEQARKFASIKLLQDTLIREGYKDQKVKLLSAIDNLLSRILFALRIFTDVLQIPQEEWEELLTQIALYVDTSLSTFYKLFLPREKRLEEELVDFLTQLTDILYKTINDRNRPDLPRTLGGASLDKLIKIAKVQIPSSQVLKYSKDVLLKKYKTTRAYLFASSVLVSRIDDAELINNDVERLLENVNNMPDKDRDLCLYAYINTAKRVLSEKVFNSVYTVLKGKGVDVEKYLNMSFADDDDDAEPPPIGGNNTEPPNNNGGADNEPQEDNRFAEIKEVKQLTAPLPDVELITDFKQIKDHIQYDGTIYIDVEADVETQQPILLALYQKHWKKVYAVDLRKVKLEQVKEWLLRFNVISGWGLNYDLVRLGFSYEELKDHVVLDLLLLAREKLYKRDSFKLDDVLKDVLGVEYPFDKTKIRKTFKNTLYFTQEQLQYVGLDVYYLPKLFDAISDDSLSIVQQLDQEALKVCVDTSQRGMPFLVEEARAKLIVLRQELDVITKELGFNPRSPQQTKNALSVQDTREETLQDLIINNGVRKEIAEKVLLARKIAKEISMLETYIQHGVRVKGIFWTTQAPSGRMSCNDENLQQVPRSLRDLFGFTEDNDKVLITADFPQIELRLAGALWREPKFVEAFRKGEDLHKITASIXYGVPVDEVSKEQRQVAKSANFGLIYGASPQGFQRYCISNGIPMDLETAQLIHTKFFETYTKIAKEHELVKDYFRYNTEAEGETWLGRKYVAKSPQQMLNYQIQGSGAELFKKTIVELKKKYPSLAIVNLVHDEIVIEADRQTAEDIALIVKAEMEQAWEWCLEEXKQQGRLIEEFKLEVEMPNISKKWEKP
# [2] = tested on: T2, DNA polymerase clone 1937 (uncultured hot spring virus (Great Boiling Spring))
# T2 sequence: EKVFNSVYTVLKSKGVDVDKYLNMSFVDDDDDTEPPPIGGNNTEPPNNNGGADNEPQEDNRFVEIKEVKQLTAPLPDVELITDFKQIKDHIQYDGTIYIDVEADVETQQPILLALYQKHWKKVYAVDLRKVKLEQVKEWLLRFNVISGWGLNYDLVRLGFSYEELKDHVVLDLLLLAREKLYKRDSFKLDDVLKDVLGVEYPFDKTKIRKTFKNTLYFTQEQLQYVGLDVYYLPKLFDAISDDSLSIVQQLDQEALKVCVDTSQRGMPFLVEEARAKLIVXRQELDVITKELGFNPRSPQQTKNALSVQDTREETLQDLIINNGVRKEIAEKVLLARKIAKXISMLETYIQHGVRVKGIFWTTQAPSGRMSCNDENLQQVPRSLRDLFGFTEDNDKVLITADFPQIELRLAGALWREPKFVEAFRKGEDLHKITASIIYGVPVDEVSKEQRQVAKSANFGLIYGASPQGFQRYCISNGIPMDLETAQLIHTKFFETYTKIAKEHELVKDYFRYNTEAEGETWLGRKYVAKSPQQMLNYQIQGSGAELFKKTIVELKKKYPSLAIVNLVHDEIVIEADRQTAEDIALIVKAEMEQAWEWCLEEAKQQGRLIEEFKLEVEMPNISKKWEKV
# [3] = tested on: T3, DNA polymerase clone 347 (uncultured hot spring virus (Great Boiling Spring))
# T3 sequence: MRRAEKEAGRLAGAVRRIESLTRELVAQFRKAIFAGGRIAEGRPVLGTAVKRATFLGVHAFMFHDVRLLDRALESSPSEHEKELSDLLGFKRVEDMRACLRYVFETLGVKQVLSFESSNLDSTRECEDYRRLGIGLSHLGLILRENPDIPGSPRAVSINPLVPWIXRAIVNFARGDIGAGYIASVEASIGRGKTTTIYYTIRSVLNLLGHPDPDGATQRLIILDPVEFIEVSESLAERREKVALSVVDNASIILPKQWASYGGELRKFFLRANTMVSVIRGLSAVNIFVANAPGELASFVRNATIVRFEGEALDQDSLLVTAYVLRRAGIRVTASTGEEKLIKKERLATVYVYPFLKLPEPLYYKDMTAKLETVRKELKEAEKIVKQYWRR
# [4] = tested on: T4, DNA polymerase clone 74 (uncultured hot spring virus (Great Boiling Spring))
# T4 sequence: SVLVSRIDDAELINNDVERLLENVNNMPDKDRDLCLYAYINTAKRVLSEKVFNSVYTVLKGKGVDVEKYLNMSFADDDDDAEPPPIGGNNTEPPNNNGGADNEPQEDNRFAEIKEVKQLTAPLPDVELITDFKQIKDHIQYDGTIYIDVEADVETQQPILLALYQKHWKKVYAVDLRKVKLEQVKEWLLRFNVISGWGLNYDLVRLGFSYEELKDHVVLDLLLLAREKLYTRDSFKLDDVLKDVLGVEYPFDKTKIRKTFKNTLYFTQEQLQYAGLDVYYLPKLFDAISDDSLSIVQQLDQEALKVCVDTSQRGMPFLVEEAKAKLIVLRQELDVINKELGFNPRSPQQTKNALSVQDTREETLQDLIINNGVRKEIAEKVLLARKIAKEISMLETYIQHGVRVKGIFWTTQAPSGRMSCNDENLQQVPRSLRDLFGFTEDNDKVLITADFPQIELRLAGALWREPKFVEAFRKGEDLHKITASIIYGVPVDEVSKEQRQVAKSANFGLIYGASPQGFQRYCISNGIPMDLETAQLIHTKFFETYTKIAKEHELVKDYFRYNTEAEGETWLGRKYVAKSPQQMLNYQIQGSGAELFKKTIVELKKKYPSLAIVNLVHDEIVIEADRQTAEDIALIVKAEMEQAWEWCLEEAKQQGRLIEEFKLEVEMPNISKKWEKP
substance,measurement,setting,value
activated calf thymus DNA,activity,[1],124000 cpm
same,activity,[2],70300 cpm
same,activity,[3],18700 cpm
same,activity,[4],47400 cpm
